Laboratory results published in patent US20140193378A1 (UNIVERSITY OF MIAMI, published 2014).
Non-standard residues stand in square brackets, D forms with d. No end group written: not given here. *: point of attachment. Desaminotyrosyl = O=C(CCc1ccc(O)cc1)*; NMeY = CN[C@@H](Cc1ccc(O)cc1)C(=O)O; Agmatine = N=C(N)NCCCCN*; Nle = CCCC[C@H](N)C(=O)O; Orn = NCCC[C@H](N)C(=O)O; dAbu = CC[C@@H](N)C(=O)O; Abu = CC[C@H](N)C(=O)O; Aoc = NCCCCCCCC(=O)O; GABA = NCCCC(=O)O

T1: human GHRH receptor (human pituitary membrane homogenates) (human, UniProt Q02643 23-423)
T1 construct: whole, on cells; Native receptor in human pituitary membrane homogenates, not on intact cells; also called hGHRH receptor
T1 sequence (looked up): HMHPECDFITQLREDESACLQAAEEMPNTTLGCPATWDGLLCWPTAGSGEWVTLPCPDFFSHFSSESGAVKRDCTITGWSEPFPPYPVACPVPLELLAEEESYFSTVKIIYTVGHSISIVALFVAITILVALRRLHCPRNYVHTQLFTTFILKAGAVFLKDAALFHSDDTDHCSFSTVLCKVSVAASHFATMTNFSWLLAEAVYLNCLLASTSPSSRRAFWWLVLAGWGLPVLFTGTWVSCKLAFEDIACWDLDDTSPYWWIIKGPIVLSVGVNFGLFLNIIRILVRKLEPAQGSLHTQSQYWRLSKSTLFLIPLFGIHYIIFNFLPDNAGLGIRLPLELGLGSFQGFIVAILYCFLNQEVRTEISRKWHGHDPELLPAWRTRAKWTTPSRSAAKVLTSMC

T2: human GHRH receptor (human pituitary membrane homogenates) (human), Q02643
T2 chain: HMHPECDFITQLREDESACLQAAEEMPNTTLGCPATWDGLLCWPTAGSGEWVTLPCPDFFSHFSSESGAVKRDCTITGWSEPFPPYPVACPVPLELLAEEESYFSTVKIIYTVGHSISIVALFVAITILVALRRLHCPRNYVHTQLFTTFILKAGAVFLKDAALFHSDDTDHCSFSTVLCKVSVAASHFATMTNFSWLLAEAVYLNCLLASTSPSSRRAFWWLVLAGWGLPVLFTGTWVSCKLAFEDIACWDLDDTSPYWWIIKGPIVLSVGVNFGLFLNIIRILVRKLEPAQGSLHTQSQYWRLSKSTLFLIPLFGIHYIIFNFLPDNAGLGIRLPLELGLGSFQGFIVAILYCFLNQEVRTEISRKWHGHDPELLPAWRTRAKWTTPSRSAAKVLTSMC


Each binder was assayed against T1, human GHRH receptor (human pituitary …) (assay: radioligand competition vs 125I-JV-1-42 (0.2 nM), human pituitary membranes).
Description: Normal human pituitaries were purchased from the National Hormone and Peptide Program (A. F. Parlow, Los Angeles, County Harbor-UCLA Medical Center, Torrance, Calif.).

Row | Binder | Relative affinity (Binding potency) vs JI-38 [fold]
1 | [Desaminotyrosyl][dA]DAIFTNSYR[Orn]VL[Abu]QLSAR[Orn]LLQDI[Nle]DR[Aoc]-NH2 (SMILES CCCC[C@H](NC(=O)[C@@H](NC(=O)[C@H](CC(=O)O)NC(=O)[C@H](CCC(N)=O)NC(=O)[C@H](CC(C)C)NC(=O)[C@H](CC(C)C)NC(=O)[C@H](CCCN)NC(=O)[C@H](CCCNC(=N)N)NC(=O)[C@H](C)NC(=O)[C@H](CO)NC(=O)[C@H](CC(C)C)NC(=O)[C@H](CCC(N)=O)NC(=O)[C@H](CC)NC(=O)[C@H](CC(C)C)NC(=O)[C@@H](NC(=O)[C@H](CCCN)NC(=O)[C@H](CCCNC(=N)N)NC(=O)[C@H](Cc1ccc(O)cc1)NC(=O)[C@H](CO)NC(=O)[C@H](CC(N)=O)NC(=O)[C@@H](NC(=O)[C@H](Cc1ccccc1)NC(=O)[C@@H](NC(=O)[C@H](C)NC(=O)[C@H](CC(=O)O)NC(=O)[C@@H](C)NC(=O)CCc1ccc(O)cc1)[C@@H](C)CC)[C@@H](C)O)C(C)C)[C@@H](C)CC)C(=O)N[C@@H](CC(=O)O)C(=O)N[C@@H](CCCNC(=N)N)C(=O)NCCCCCCCC(N)=O, also called Peptide 21300) [P-21300 [Dat^1, D-Ala^2, Orn^12, Abu^15, Orn^21, Nle^27, Asp^28, Amc^30]hGHRH(1-30)NH2] | 1.2
2 | [NMeY][dA]DAIFTNSYR[Orn]VL[Abu]QLSAR[Orn]LLQDI[Nle]DR[Aoc]-NH2 (N-terminus assumed; SMILES CCCC[C@H](NC(=O)[C@@H](NC(=O)[C@H](CC(=O)O)NC(=O)[C@H](CCC(N)=O)NC(=O)[C@H](CC(C)C)NC(=O)[C@H](CC(C)C)NC(=O)[C@H](CCCN)NC(=O)[C@H](CCCNC(=N)N)NC(=O)[C@H](C)NC(=O)[C@H](CO)NC(=O)[C@H](CC(C)C)NC(=O)[C@H](CCC(N)=O)NC(=O)[C@H](CC)NC(=O)[C@H](CC(C)C)NC(=O)[C@@H](NC(=O)[C@H](CCCN)NC(=O)[C@H](CCCNC(=N)N)NC(=O)[C@H](Cc1ccc(O)cc1)NC(=O)[C@H](CO)NC(=O)[C@H](CC(N)=O)NC(=O)[C@@H](NC(=O)[C@H](Cc1ccccc1)NC(=O)[C@@H](NC(=O)[C@H](C)NC(=O)[C@H](CC(=O)O)NC(=O)[C@@H](C)NC(=O)[C@H](Cc1ccc(O)cc1)NC)[C@@H](C)CC)[C@@H](C)O)C(C)C)[C@@H](C)CC)C(=O)N[C@@H](CC(=O)O)C(=O)N[C@@H](CCCNC(=N)N)C(=O)NCCCCCCCC(N)=O, also called Peptide 21303) [P-21303 [N-Me-Tyr^1, D-Ala^2, Orn^12, Abu^15, Orn^21, Nle^27, Asp^28, Amc^30]hGHRH(1-30)NH2] | 2.32
3 | Ac-[NMeY][dA]DAIFTQSYR[Orn]VL[Abu]QLSAR[Orn]LLQDI[Nle]D[Agmatine] (SMILES CCCC[C@H](NC(=O)[C@@H](NC(=O)[C@H](CC(=O)O)NC(=O)[C@H](CCC(N)=O)NC(=O)[C@H](CC(C)C)NC(=O)[C@H](CC(C)C)NC(=O)[C@H](CCCN)NC(=O)[C@H](CCCNC(=N)N)NC(=O)[C@H](C)NC(=O)[C@H](CO)NC(=O)[C@H](CC(C)C)NC(=O)[C@H](CCC(N)=O)NC(=O)[C@H](CC)NC(=O)[C@H](CC(C)C)NC(=O)[C@@H](NC(=O)[C@H](CCCN)NC(=O)[C@H](CCCNC(=N)N)NC(=O)[C@H](Cc1ccc(O)cc1)NC(=O)[C@H](CO)NC(=O)[C@H](CCC(N)=O)NC(=O)[C@@H](NC(=O)[C@H](Cc1ccccc1)NC(=O)[C@@H](NC(=O)[C@H](C)NC(=O)[C@H](CC(=O)O)NC(=O)[C@@H](C)NC(=O)[C@H](Cc1ccc(O)cc1)N(C)C(C)=O)[C@@H](C)CC)[C@@H](C)O)C(C)C)[C@@H](C)CC)C(=O)N[C@@H](CC(=O)O)C(=O)NCCCCNC(=N)N, also called Peptide 20351) | 1.26
4 | [NMeY][dA]DAIFTQSYR[Orn]VL[Abu]QLSAR[Orn]LLQDI[Nle]D[Agmatine] (also called Peptide 20361) [P-20361 [N-Me-Tyr^1, D-Ala^2, Gln^8, Orn^12, Abu^15, Orn^21, Nle^27, Asp^28, Agm^29]hGHRH(1-29)NH2] | 5.3
5 | [Desaminotyrosyl][dAbu]DAIFTNSYR[Orn]VL[Abu]QLSAR[Orn]LLQDI[Nle]SR[GABA]-NH2 (SMILES CCCC[C@H](NC(=O)[C@@H](NC(=O)[C@H](CC(=O)O)NC(=O)[C@H](CCC(N)=O)NC(=O)[C@H](CC(C)C)NC(=O)[C@H](CC(C)C)NC(=O)[C@H](CCCN)NC(=O)[C@H](CCCNC(=N)N)NC(=O)[C@H](C)NC(=O)[C@H](CO)NC(=O)[C@H](CC(C)C)NC(=O)[C@H](CCC(N)=O)NC(=O)[C@H](CC)NC(=O)[C@H](CC(C)C)NC(=O)[C@@H](NC(=O)[C@H](CCCN)NC(=O)[C@H](CCCNC(=N)N)NC(=O)[C@H](Cc1ccc(O)cc1)NC(=O)[C@H](CO)NC(=O)[C@H](CC(N)=O)NC(=O)[C@@H](NC(=O)[C@H](Cc1ccccc1)NC(=O)[C@@H](NC(=O)[C@H](C)NC(=O)[C@H](CC(=O)O)NC(=O)[C@@H](CC)NC(=O)CCc1ccc(O)cc1)[C@@H](C)CC)[C@@H](C)O)C(C)C)[C@@H](C)CC)C(=O)N[C@@H](CO)C(=O)N[C@@H](CCCNC(=N)N)C(=O)NCCCC(N)=O, also called Peptide 25504) [P-25504 [Dat^1, D-Abu^2, Orn^12, Abu^15, Orn^21, Nle^27, Gab^30]hGHRH(1-30)NH2] | 3.02

Molecular target: T2, human GHRH receptor (human pituitary …)
Assay: as above

Row | Binder | IC50 [nM] | Relative affinity (Binding potency) vs JI-38 [fold]
6 | [NMeY]ADAIFTNSYR[Orn]VL[Abu]QLSAR[Orn]LLQDI[Nle]SR[GABA]-NHMe [P-27415 [N-Me-Tyr^1, Orn^12, Abu^15, Orn^21, Nle^27, Gab^30]hGHRH(1-30)NH-CH3] | 3.02 | 1.44
7 | [NMeY]ADAIFTQSYR[Orn]VL[Abu]QLSAR[Orn]LLQDI[Nle]SRQ[GABA]-NH2 (N-terminus assumed; SMILES CCCC[C@H](NC(=O)[C@@H](NC(=O)[C@H](CC(=O)O)NC(=O)[C@H](CCC(N)=O)NC(=O)[C@H](CC(C)C)NC(=O)[C@H](CC(C)C)NC(=O)[C@H](CCCN)NC(=O)[C@H](CCCNC(=N)N)NC(=O)[C@H](C)NC(=O)[C@H](CO)NC(=O)[C@H](CC(C)C)NC(=O)[C@H](CCC(N)=O)NC(=O)[C@H](CC)NC(=O)[C@H](CC(C)C)NC(=O)[C@@H](NC(=O)[C@H](CCCN)NC(=O)[C@H](CCCNC(=N)N)NC(=O)[C@H](Cc1ccc(O)cc1)NC(=O)[C@H](CO)NC(=O)[C@H](CCC(N)=O)NC(=O)[C@@H](NC(=O)[C@H](Cc1ccccc1)NC(=O)[C@@H](NC(=O)[C@H](C)NC(=O)[C@H](CC(=O)O)NC(=O)[C@H](C)NC(=O)[C@H](Cc1ccc(O)cc1)NC)[C@@H](C)CC)[C@@H](C)O)C(C)C)[C@@H](C)CC)C(=O)N[C@@H](CO)C(=O)N[C@@H](CCCNC(=N)N)C(=O)N[C@@H](CCC(N)=O)C(=O)NCCCC(N)=O) [P-29703 [N-Me-Tyr^1, Gln^8, Orn^12, Abu^15, Orn^21, Nle^27, Gln-Gab^30]hGHRH(1-30)NH2] | – | 3.57
8 | [NMeY]ADAIFTQSYR[Orn]VL[Abu]QLSAR[Orn]LLQDI[Nle]SR-NHMe [P-27405 [N-Me-Tyr^1, Gln^8, Orn^12, Abu^15, Orn^21, Nle^27]hGHRH(1-29)NH-CH3] | 1.08 | 4.03
